Tests used:
[1] = test system: BRCA2-deficient DLD1 colon cancer cells; test: Phospho-53BP1 foci accumulation; format: cell-based
Experimental: (§1) A matched pair of BRCA2-proficient and deficient DLD1 colon cancer cells and PTEN-proficient and deficient U251 human glioma cells were treated with control media or media containing 10 μM di-scFv variant 13 (SEQ ID NO: 41), 5 nM olaparib, or combination treatment.

[2] = test system: human GBM cancer stem cells (CSCs) grown as tumour spheres; test: GBM tumour sphere penetration and sphere volume; format: cell-based
Experimental: GBM cancer stem cells extracted from primary human GBM tumours from patients and grown as spheres were treated with control or di-scFv (SEQ ID NO: 41), and the effect of dose and incubation time on reduction of sphere volume was evaluated by confocal micrographs of DX1-rhodamine cellular penetration into GBM cells. Tumour spheres are recognised as a useful tool for pre-clinical studies as they retain tumour heterogeneity and more closely represent the original patient tumour.

[3] = test system: Primary human glioblastoma (GBM) cancer cells; test: Live cells by trypan blue staining in primary GBM explants; format: cell-based; conditions: seven patient explants; percentage of live cells by trypan blue
Experimental: Primary human glioblastoma (GBM) cancer cells extracted from primary human GBM tumours from patients were treated with control or di-scFv (SEQ ID NO: 41), and percentage of live cells was evaluated by trypan blue staining.

[4] = test system: GBM cells extracted from human GBM tumours; test: Orthotopic mouse model of GBM; format: in vivo
Experimental: An orthotopic mouse model of GBM was generated by intracranial injection of GBM cells extracted from human GBM tumours. Once the tumours developed in the brain, mice were treated by tail vein injection of control or di-scFv variant 13 (SEQ ID NO: 41), and effect of di-scFv on reduction of tumour volume was evaluated by extraction of tumours. […] To confirm this, tumours and normal brain were probed for di-scFv by protein L immunostaining.
Mean survival data reflected these trends (83 days±3.2 days for di-scFv treated mice, 71 days±1.2 days for controls) (FIG. 16E). Statistical analysis indicated a significant difference between the two groups, with P value=0.004.

DLD1 colon cancer cells = test: Alkaline phosphatase-based survey of nuclear penetration; format: cell-based; conditions: cells treated for one hour; right shift of histogram peak
Experimental: DLD1 colon cancer cells were treated with control media or each of the indicated variants for one hour. Cells were then washed, fixed, blocked with 1% BSA-TBST, and then probed with protein L for one hour. Cells were then washed and incubated with an anti-protein L primary antibody for one hour. After another round of washing cells were incubated with an alkaline phosphatase-conjugated secondary antibody for one hour. Finally, cells were washed and signal was developed by addition of NBT/BCIP. Dark stain indicates location of the variants.
Raw integrated density values reflecting nuclear alkaline phosphatase staining in the DLD1 cells from the experiment in FIG. 3 were obtained by analysis using ImageJ Boxplots of distributions of values are presented for each variant in FIG. 4.
Histogram plots of cell counts versus nuclear staining intensity (represented as reciprocal intensity in arbitrary units) are shown in FIG. 5.

[5] = test system: PTEN-deficient U251 human glioma cells; test: Phospho-53BP1 foci accumulation (DNA damage); format: cell-based; conditions: for mean number of phospho-53BP1 foci per cell: PTEN-deficient U251
Experimental: A matched pair of PTEN-proficient and deficient U251 human glioma cells were treated with control media or media containing Variant 10, 11, 13, 15, or 16 for twenty-four hours. Cells were then washed, fixed, blocked, and then probed with an anti-phospho-53BP1 antibody overnight. Cells were then washed and incubated with an AlexaFluor555-conjugated secondary antibody. Finally, cells were washed, counterstained with DAPI, and visualized under a fluorescence microscope. Images were saved and evaluated by CellProfiler to determine mean number of phospho-53BP1 foci per cell.
as §1

[6] = test system: PTEN-deficient U87 human glioma cells; test: Cell viability by Trypan blue exclusion assay; format: cell-based; conditions: 7 days after treatment; relative to control treated cells
Experimental: Cell viability of PTEN-deficient U87 human glioma cells was also assessed following treatment with control media or media containing Variants 10, 13, 15, or 16. Cell viability was determined 7 days after treatment using Trypan blue exclusion assay and by direct visualization of cell morphology by light microscopy.

[7] = test system: HDR-proficient DLD1 cells; test: Cell death in HDR-proficient cells, di-scFv with PARP inhibitor; format: cell-based; conditions: 5 nM olaparib, 10 μM di-scFv, or both
Experimental: Homology-directed repair (HDR) deficient BRCA2-DLD1 cells and PTEN-U251 cells were treated with control, 5 nM olaparib, 10 μM di-scFv, or 10 μM di-scFv+5 nM olaparib. Surviving fraction was determined by colony formation assay.
It was then determined whether the combination of di-scFv and olaparib is simply universally cytotoxic, regardless of DNA repair status. To evaluate this possibility, HDR-proficient DLD1 cells were treated with the above regimen to confirm selectivity of combination therapy to HDR-deficient malignant cells.

DLD-1 cells = test: Nuclear penetration by protein L immunostain of fixed cells; format: cell-based
Experimental: (§2) DLD-1 and MCF-7 cells were treated with control or di-scFv (SEQ ID NO: 41), and nuclear penetration was evaluated by protein L immunostain of fixed cells.

MCF-7 cells = test: as above; format: cell-based
Experimental: as §2

[8] = test system: BRCA2-deficient DLD1 colon cancer cells; test: Cell viability by Trypan blue exclusion assay; format: cell-based; conditions: 7 days later
Experimental: (§3) Next, a matched pair of BRCA2-proficient and deficient DLD1 colon cancer cells was treated with control media or media containing Variants 10, 13, 15, or 16. Cell viability was determined 7 days later by Trypan blue exclusion assay and by direct visualization of cell morphology by light microscopy. […] Representative light microscope images shown the changes in morphology in the BRCA2-deficient cancer cells treated with the variants are shown in FIG. 10, Panel A. Quantitative analysis of the cell survival by Trypan blue exclusion assay is shown in FIG. 10, Panel B.

[9] = test system: BRCA2-proficient DLD1 colon cancer cells; test: Cell viability by Trypan blue exclusion assay; format: cell-based; conditions: 7 days later
Experimental: as §3

B1: Variant 13: cell penetrating anti-DNA humanized di-scFv, SEQ ID NO: 41 (protein)
scFv: DIQMTQSPSSLSASLGDRATITCRASKTVSTSSYSYMHWYQQKPGQPPKLLIKYASYLESGVPSRFSGSGSGTDFTLTISSLQPEDAATYYCQHSREFPWTFGGGTKVEIKRADAAPGGGGSGGGGSGGGGSEVQLVESGGGLVQPGGSLRLSCAASGFTFSNYGMHWVRQAPGKGLEWVSYISSGSSTIYYADSVKGRFTISRDNAKNSLYLQMNSLRAEDTAVYYCARRGLLLDYWGQGTTVTVSSASTKGPSVFPLAPLESSGSDIQMTQSPSSLSASLGDRATITCRASKTVSTSSYSYMHWYQQKPGQPPKLLIKYASYLESGVPSRFSGSGSGTDFTLTISSLQPEDAATYYCQHSREFPWTFGGGTKVEIKRADAAPGGGGSGGGGSGGGGSEVQLVESGGGLVQPGGSLRLSCAASGFTFSNYGMHWVRQAPGKGLEWVSYISSGSSTIYYADSVKGRFTISRDNAKNSLYLQMNSLRAEDTAVYYCARRGLLLDYWGQGTTVTVSS
modifications: Variant 13
[1]; BRCA2-deficient DLD1, 10 μM di-scFv, 5 nM olaparib
  mean number of phospho-53BP1 foci per cell: increased the number of phospho-53BP1 foci
[1]; HDR-deficient DLD1, 24 hour
  percentage of P53BP1-positive cells: increased
[2]; confocal micrographs, DX1-rhodamine
  cellular penetration in GBM spheres: demonstrated cellular penetration in GBM spheres
[2]; effect of dose and incubation time
  sphere volume: reduced sphere volume in dose-dependent and time-dependant manner
[3]
  glioblastoma tumour explants showing significant cancer cell death: Five of the seven
[4]; group of 7 mice
  median survival: 87 days
[4]; group of 7 mice, controls median 72 days
  median survival longer than controls: more than 20%
[4]; mouse, in vivo
  crossing of the blood brain barrier: successfully crossed the blood brain barrier
  di-scFv in GBM tumour cells by protein L immunostaining: detected in the nuclei of GBM tumour cells
  di-scFv in adjacent normal brain cells by protein L immunostaining: not evident
[4]; survival study mice
  toxicity or weight loss: No toxicity or weight loss
[4]; tail vein injection
  TUNEL staining (incidence of apoptosis in tumours): increased incidence of apoptosis
[4]; tail vein injection, brain sections
  glioblastoma tumour size smaller than in control mice: more than 40%
DLD1 colon cancer cells
  nuclear penetration relative to the yeast prototype (histogram of cell counts versus nuclear staining intensity): notable right shift and narrowing of distributions
[5]; HDR-deficient U251, 24 hour
  percentage of P53BP1-positive cells: increased
[5]; 10 μM di-scFv, 5 nM olaparib
  mean number of phospho-53BP1 foci per cell: increased the number of phospho-53BP1 foci
[5]; twenty-four hours, vs control media
  mean number of phospho-53BP1 foci per cell: increased the number of foci
[6]
  cell viability: reductions in cell viability
[7]
  cell death: No effect on cell death
DLD-1 cells
  nuclear penetration: successfully penetrated
MCF-7 cells
  nuclear penetration: successfully penetrated
[8]
  cell viability / toxicity: killed by the variants
[9]
  cell viability / toxicity: not toxic

Reference: US12312417B2, “Binding proteins 1” (Nucleus Therapeutics Pty. Ltd., priority 2017, dated 2025)
